For assay [1], the target named is full-length recombinant TAL-H protein (38 kDa), cleaved with thrombin from a GST fusion protein (human).
Assay [2] shares this target. The source holds these as a separate data set.
Assay [3] has as its target tetanus toxoid (Clostridium tetani (strain Massachusetts / E88)) (UniProt P04958).
Assay [4] concerns the target purified human myelin basic protein (18.5 kDa) (human) (UniProt P02686).

3H-TdR incorporation, Stimulation Index (S.I.) and Stimulation Index data for 19 substances are collected here from US6018021.

In the case of “peripheral blood lymphocytes of MS patient eight (cells without a defined receptor)”, in assay [1], the 3H-TdR incorporation, Stimulation Index (S.I.) amounted to 4.5 S.I.

Consider “peripheral blood lymphocytes of MS patient eleven (cells without a defined receptor)”, for which the 3H-TdR incorporation, Stimulation Index (S.I.) in assay [1] was found to be 10.3 S.I. Take “peripheral blood lymphocytes of MS patient fifteen (cells without a defined receptor)”: the Stimulation Index came out at 4.61 S.I in assay [2], 0.96 S.I in assay [3] and 1.53 S.I in assay [4].

Regarding “peripheral blood lymphocytes of MS patient five (cells without a defined receptor)”, the 3H-TdR incorporation, Stimulation Index (S.I.) in assay [1] stood at 3.3 S.I. As for “peripheral blood lymphocytes of MS patient four (cells without a defined receptor)”, in assay [1], the 3H-TdR incorporation, Stimulation Index (S.I.) amounted to 2.7 S.I.

Regarding “peripheral blood lymphocytes of MS patient fourteen (cells without a defined receptor)”, in assay [1], the 3H-TdR incorporation, Stimulation Index (S.I.) is 7.1 S.I. Still for that read-out and setting: then “peripheral blood lymphocytes of MS patient nine (cells without a defined receptor)”, with 3.1 S.I.

In the case of “peripheral blood lymphocytes of MS patient one (cells without a defined receptor)”, the Stimulation Index in assay [2] turned out to be 1.81 S.I; in assay [3], 0.8 S.I; in assay [4], 0.89 S.I. As to “peripheral blood lymphocytes of MS patient seven (cells without a defined receptor)”, the 3H-TdR incorporation, Stimulation Index (S.I.) in assay [1] stood at 1.4 S.I. As to “peripheral blood lymphocytes of MS patient seventeen (cells without a defined receptor)”, the Stimulation Index in assay [2] was 6.47 S.I; in assay [3], 3.81 S.I; in assay [4] it was 3.01 S.I.

In the case of “peripheral blood lymphocytes of MS patient six (cells without a defined receptor)”, the 3H-TdR incorporation, Stimulation Index (S.I.) in assay [1] was 2.9 S.I. On to “peripheral blood lymphocytes of MS patient thirteen (cells without a defined receptor)”, for which the Stimulation Index in assay [2] was 3.95 S.I; in assay [3], 0.79 S.I; in assay [4], 2.25 S.I.

“peripheral blood lymphocytes of MS patient twelve (cells without a defined receptor)”: the 3H-TdR incorporation, Stimulation Index (S.I.) in assay [1] was 3.1 S.I. Turning to “peripheral blood lymphocytes of MS patient two (cells without a defined receptor)”, the 3H-TdR incorporation, Stimulation Index (S.I.) in assay [1] was determined as 4.7 S.I.

As for “peripheral blood lymphocytes of control donor PEG (cells without a defined receptor)”, the 3H-TdR incorporation, Stimulation Index (S.I.) in assay [1] was 0.7 S.I.

With “peripheral blood lymphocytes of control donor PRO (cells without a defined receptor)”, in assay [1], the 3H-TdR incorporation, Stimulation Index (S.I.) was 1 S.I. For “peripheral blood lymphocytes of control donor sixteen (cells without a defined receptor)”, the 3H-TdR incorporation, Stimulation Index (S.I.) in assay [1] is 1.4 S.I. “peripheral blood lymphocytes of control donor ten (cells without a defined receptor)”: the 3H-TdR incorporation, Stimulation Index (S.I.) in assay [1] stood at 2.3 S.I. Consider “peripheral blood lymphocytes of control donor three (cells without a defined receptor)”, for which, in assay [1], the 3H-TdR incorporation, Stimulation Index (S.I.) worked out at 1 S.I.
